Data set [1] in a line: Excitation and emission spectra of Cy5, Dig-Cy5 and complex. Format: physicochemical. The source says: To evaluate whether digoxygenation of Cy5 alters its fluorescence features, we compared the excitation and emission spectra of Cy5 and compared it with the spectra of the newly generated Dig-Cy5 and with Dig-Cy5 within a complex with bispecific antibodies. […] We conclude that Dig-Cy5 and -complexes can be applied for antibody-mediated targeting and in vivo imaging.

In data set [2] the test system is CD22 positive Raji and Ramos cells. The data set is described as follows: FACS analysis with <CD22>-<DIG> and DIG-Cy5. Format: cell-based. Particulars: 5 μg/ml <CD22>-<DIG>, DIG-Cy5 66.4 nM. How it is done:
For these analyses we used CD22 positive Raji and Ramos cells and the bispecific <CD22>-<DIG> antibody. 3×10^5 cells per well of a 96-well-plate were incubated with 5 μg/ml of the <CD22>-<DIG> antibody in FACS buffer (PBS containing 5% FCS). After washing the cells were incubated with DIG-Cy5 in a final concentration of 66.4 nM. After another washing step cells were analysed with the FACS canto II (BD Biosciences).

Data set [3] deals with IGF1R expressing H322M tumor xenografts. The data set is described as follows: Near Infrared Fluorescence Imaging (NIRF) in vivo, H322M xenografts. Further details: species or system mice. Particulars: not complexed with antibody; some accumulation in the liver. The protocol:
To analyze if the specific antigen binding functionality of the antibody-complexes can be utilized to specifically deliver imaging reagents to tumor cells, we performed Near Infrared Fluorescence Imaging Studies (NIRF) in vivo. […] These xenografts were either expressing the antigen Her2 (KPL4 cells) or the antigen IGF1R (H322M cells). Subsequently NIRF imaging was performed by using the Maestro system from CRI. Animals were placed in a measuring chamber and the fluorescence was measured over a defined spectral wavelength array, depending on the dye. Spectral information of each pixel of the obtained image was analyzed by a special software which allows to separate different pre-defined spectra, e.g. autofluorescence and the signal of the dye. Theses separated specific signals were quantified by the Maestro software in order to compare different samples.
To analyze whether the <Her2>-<Dig>-Dig-siRNA complexes, and <IGF1R>-<Dig>-Dig-siRNA complexes mediate specific targeting of their payload towards antigen expressing cells not only in cell culture experiments but also in live animals, we made use of the fact that siRNAs can simultaneously be labeled with Dig as well as with fluorescence labels. […] The technology that we've applied for this task is Near Infrared Fluorescence Imaging (NIRF) in vivo. […]

In another data set the test system is MDA-MB-468 cells. The data set is described as follows: CellTiter Glo Luminescent Cell Viability Assay, doxorubicin. Particulars: Homo sapiens, 48 hours. Format: cell-based.
In a further data set the test system is KPL-4 cells. The description is as above. Format: cell-based. Particulars: Homo sapiens, KPL4, 48 hours.
The next data set concerns H322M cells. Described as above. Particulars: Homo sapiens, NCI-H322M, 48 hours. Format: cell-based.
A further data set deals with Eg5-siRNA-DIG. The data set is described as follows: SPR (Biacore) binding to mono-digoxygenated siRNA. Particulars: 25° C.
For another data set, the target named is Eg5-siRNA-(2×)DIG. Description: SPR (Biacore) binding to bi-digoxygenated siRNA. Particulars: 25° C., read-out: KD, binding of siRNA-(2x)DIG.
A short description of data set [4]: SPR (BiaCore) of sequence-optimized anti-Dig modules. Format: binding. Particulars: FIG. 46 c, d, read-out: KD of anti-Dig module. An excerpt: Further optimization of the humanized VH and VL sequences of the anti-digoxygenin antibody was applied to generate modules with even higher affinity towards digoxygenin. Based upon the experimentally determined as well as in-silico calculated predicted structures (see above, based upon structure modeling without experimental structure determination), we identified three positions in which alterations might affect affinity. These were located at (Kabat positions) Ser49, Ile57 and Ala60 of the VH domain (FIG. 46). Replacement of the amino acid VHSer49 with Ala, VHIle57 with Ala and of VHAla60 with Pro generated antibody derivatives with sequences that are listed as SEQ ID NO 36 and SEQ ID NO 37. […] The relevance of these positions was thereafter confirmed by inspecting the experimentally determined structure of the dig-binding variable region. The digoxygenin binding module with improved affinity can be applied as hapten-binding entity for various bi- and multispecific antibody derivatives.
For that, binding properties of the recombinant <Dig> derivatives were analyzed by surface plasmon resonance (SPR) technology using a Biacore T100 or Biacore 3000 instrument (GE Healthcare Bio-Sciences AB, Uppsala). This system is well established for the study of molecule interactions. […]

The target of a further data set is DIG-siRNA2349. The data set is described as follows: SPR binding to DIG-siRNA2349. Particulars: analyte DIG-siRNA2349; replicate lines; listed as <DIG>hu2. How it is done:
For that, binding properties of the recombinant <Dig> derivatives were analyzed by surface plasmon resonance (SPR) technology using a Biacore T100 or Biacore 3000 instrument (GE Healthcare Bio-Sciences AB, Uppsala). This system is well established for the study of molecule interactions. It allows a continuous real-time monitoring of ligand/analyte bindings and thus the determination of association rate constants (ka), dissociation rate constants (kd), and equilibrium constants (KD) in various assay settings. SPR-technology is based on the measurement of the refractive index close to the surface of a gold coated biosensor chip. Changes in the refractive index indicate mass changes on the surface caused by the interaction of immobilized ligand with analyte injected in solution. If molecules bind to immobilized ligand on the surface the mass increases, in case of dissociation the mass decreases. To perform the binding studies capturing anti-human IgG antibody was immobilized on the surface of a CM5 biosensor chip using amine-coupling chemistry. Flow cells were activated with a 1:1 mixture of 0.1 M N-hydroxysuccinimide and 0.1 M 3-(N,N-dimethylamino)propyl-N-ethylcarbodiimide at a flow rate of 5 μl/min. […] A reference control flow cell was treated in the same way but with vehicle buffers only instead of the capturing antibody. Surfaces were blocked with an injection of 1 M ethanolamine/HCl pH 8.5. To compare the binding of the humanized protein variants with that of the murine <Dig> IgG from the original hybridoma 19-11, capturing anti-mouse IgG antibody was immobilized on the surface of a CM5 biosensor chip in the same fashion as described above for the anti-human IgG antibody. To evaluate the functionality of the recombinant <Dig> derivatives, binding of the recombinant hu<Dig> modules, incl. (i) humanized IgG, (ii) fusion proteins harboring hu<Dig> scFv or (iii) disulfide-stabilized scFvs was assayed with different digoxygenated antigens The resulting binding affinities were compared to the binding of the murine ‘wildtype’ DIG-IgG from which the recombinant humanized modules were derived. […]

The test system of the next data set is DIG-Myoglobin. Description: SPR binding to mono-digoxygenated protein DIG-myoglobin. Particulars: analyte DIG-Myoglobin; replicate lines; listed as <DIG>hu2. The protocol:
For that, binding properties of the recombinant <Dig> derivatives were analyzed by surface plasmon resonance (SPR) technology using a Biacore T100 or Biacore 3000 instrument (GE Healthcare Bio-Sciences AB, Uppsala). This system is well established for the study of molecule interactions. It allows a continuous real-time monitoring of ligand/analyte bindings and thus the determination of association rate constants (ka), dissociation rate constants (kd), and equilibrium constants (KD) in various assay settings. SPR-technology is based on the measurement of the refractive index close to the surface of a gold coated biosensor chip. Changes in the refractive index indicate mass changes on the surface caused by the interaction of immobilized ligand with analyte injected in solution. If molecules bind to immobilized ligand on the surface the mass increases, in case of dissociation the mass decreases. To perform the binding studies capturing anti-human IgG antibody was immobilized on the surface of a CM5 biosensor chip using amine-coupling chemistry. Flow cells were activated with a 1:1 mixture of 0.1 M N-hydroxysuccinimide and 0.1 M 3-(N,N-dimethylamino)propyl-N-ethylcarbodiimide at a flow rate of 5 μl/min. […] A reference control flow cell was treated in the same way but with vehicle buffers only instead of the capturing antibody. Surfaces were blocked with an injection of 1 M ethanolamine/HCl pH 8.5. To compare the binding of the humanized protein variants with that of the murine <Dig> IgG from the original hybridoma 19-11, capturing anti-mouse IgG antibody was immobilized on the surface of a CM5 biosensor chip in the same fashion as described above for the anti-human IgG antibody. To evaluate the functionality of the recombinant <Dig> derivatives, binding of the recombinant hu<Dig> modules, incl. (i) humanized IgG, (ii) fusion proteins harboring hu<Dig> scFv or (iii) disulfide-stabilized scFvs was assayed with different digoxygenated antigens The resulting binding affinities were compared to the binding of the murine ‘wildtype’ DIG-IgG from which the recombinant humanized modules were derived.
Another SPR study was performed in which the binding affinity of <DIG>-hu2, IGF1R-DIG and <DIG> M-19-11 was compared in terms of binding to the mono-digoxygenated protein DIG-myoglobin.

The source of these data is US9050375B2, “Bi-specific digoxigenin binding antibodies” (priority 2009, dated 2015).

Several values for one entry are separate records, joined by “and”; a condition that tells them apart may be missing. Equal values may be shown once.

Protocol for Eg5-siRNA-(2×)DIG: (§1) For that, binding properties of the recombinant <Dig> derivatives were analyzed by surface plasmon resonance (SPR) technology using a Biacore T100 or Biacore 3000 instrument (GE Healthcare Bio-Sciences AB, Uppsala). […] To perform the binding studies capturing anti-human IgG antibody was immobilized on the surface of a CM5 biosensor chip using amine-coupling chemistry. Flow cells were activated with a 1:1 mixture of 0.1 M N-hydroxysuccinimide and 0.1 M 3-(N,N-dimethylamino)propyl-N-ethylcarbodiimide at a flow rate of 5 μl/min. […] A reference control flow cell was treated in the same way but with vehicle buffers only instead of the capturing antibody. Surfaces were blocked with an injection of 1 M ethanolamine/HCl pH 8.5. […]
(§2) Anti-mouse IgG antibody was immobilized on the surface of a CM5 biosensor chip in the same fashion as described above. […] The samples to be analyzed were diluted in HBS-P (10 mM HEPES, pH 7.4, 150 mM NaCl, 0.005% Surfactant P20) and injected at a flow rate of 5 μl/min. […] Signals were detected at a rate of one signal per second.
(§3) The samples to be analyzed were diluted in HBS-P and injected at a flow rate of 5 μl/min. […]
Protocol for Eg5-siRNA-DIG: as §1, §2, §3
Protocol for H322M cells: (§4) Then, cell viability was assessed by applying the CellTiter Glo Luminescent Cell Viability Assay (Promega, Madison, Wis.).
Protocol for KPL-4 cells: as §4
Protocol for MDA-MB-468 cells: as §4
These experiments included an additional breast tumor cell line MDA-MB-468. […] Thereafter, cell viability was assessed by applying the CellTiter Glo Luminescent Cell Viability Assay (Promega, Madison, Wis.).

As to `CCN1c2ccc(S(=O)(=O)O)cc2C(C)(C)C1/C=C/C=C/C=C1\N(CCCCCC(=O)NCCNC(=O)CO[C@H]2CC[C@@]3(C)[C@H](CC[C@@H]4[C@@H]3C[C@@H](O)[C@]3(C)[C@@H](C5=CC(=O)OC5)CC[C@]43O)C2)c2ccc(S(=O)(=O)O)cc2C1(C)C` (stereo partly drawn) [Dig-Cy5], in [1], the “Emission wavelength (max.)” value is “at 670 nm” and the Excitation wavelength is reported as 575-605 nm. Moreover, the “binding to Raji or Ramos cells (FACS)” value in data set [2] is given as “hardly any binding”. Further, the “tumor specific fluorescence (NIRF) without antibody” value in data set [3] was “no tumor specific fluorescence”.

As for `COc1cccc2c1C(=O)c1c(O)c3c(c(O)c1C2=O)C[C@@](O)(C(=O)CO)C[C@@H]3O[C@H]1C[C@H](N)[C@H](O)[C@H](C)O1` [doxorubicin, Doxorubicin], the IC50 in the data set on MDA-MB-468 cells amounted to 17000 nM; with KPL-4 cells it was 2600 nM; in the data set with H322M cells, 25000 nM.

B1: humanized DIG-IgG: recombinant humanized anti-digoxigenin IgG; Seq. ID. NO. 3-6 (antibody, V domains shown)
VH: QVQLVESGGGLVKPGGSLRLSCAASGFTFSDYAMSWIRQAPGKGLEWVSSINIGATYIYYADSVKGRFTISRDNAKNSLYLQMNSLRAEDTAVYYCARPGSPYEYDKAYYSMAYWGQGTTVTVSS
VL: DIQMTQSPSSLSASVGDRVTITCRASQDIKNYLNWYQQKPGKAPKLLIYYSSTLLSGVPSRFSGSGSGTDFTLTISSLQPEDFATYYCQQSITLPPTFGGGTKVEIKR
notes: recombinant humanized anti-digoxigenin IgG; ID; NO; 3-6
On to B1, for which the Kd was 12 nM at Eg5-siRNA-DIG; 0.008 nM on Eg5-siRNA-(2×)DIG; 12 nM in data set [4]; 14.5 nM and 15.6 nM on DIG-siRNA2349. For the same molecule, the ka is 645000 M⁻¹ s⁻¹ and 628000 M⁻¹ s⁻¹ in the data set on DIG-siRNA2349; 620000 M⁻¹ s⁻¹ and 749000 M⁻¹ s⁻¹ in the data set with DIG-Myoglobin. Besides, the kd on DIG-siRNA2349 was 0.00937 s⁻¹ and 0.0098 s⁻¹; at DIG-Myoglobin, 0.00982 s⁻¹ and 0.00881 s⁻¹.
